Where a chain is given by its changes, count along the chain named. One block for each binder: values may come before it.
Columns and labels:
[1] = target: T1, canine PD-1 (on transfected CHO cells) (canine); assay: flow cytometry blocking assay on CHO cells transiently transfected with canine PD-1; antibody at 5 µg/mL; blocked ligand biotin-labeled dPD-L1 (5 µg/ml), detected with Streptavidin-PE
T1 construct: also called dPD-1
T1 chain: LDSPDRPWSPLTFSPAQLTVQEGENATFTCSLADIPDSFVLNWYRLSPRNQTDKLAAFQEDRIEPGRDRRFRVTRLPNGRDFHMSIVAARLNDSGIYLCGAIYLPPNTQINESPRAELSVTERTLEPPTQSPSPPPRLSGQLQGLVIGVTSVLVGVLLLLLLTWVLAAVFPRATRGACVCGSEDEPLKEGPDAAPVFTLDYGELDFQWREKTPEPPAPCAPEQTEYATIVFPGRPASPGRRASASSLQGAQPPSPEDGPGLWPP
Experimental: (§1) The anti-dPD-1 chimeric antibodies were collected from mouse ascites fluid and purified by chromatography. 25 μl CHO cells transiently transfected with canine PD-1 were added to each well in a plate. The purified antibodies were titrated to the desired final concentrations, and were added to each well at 25 μl per well at 4° C. and incubated for 30 minutes.
(§2) After being washed with phosphate-buffered saline (PBS) twice (1200 rpm, 5 minutes), 50 μl of PE-labeled Streptavidin (Streptavidin-PE) at 1:100 dilution was added into each well, and incubated for 30 minutes at 4° C., followed by PBS wash (1200 rpm, 5 minutes). 20 μl of PBS was added. The signals for PE was detected by flow cytometry (Intellicyt).

[2] = target: T1, canine PD-1 (on transfected CHO cells); assay: flow cytometry blocking assay on CHO cells transiently transfected with canine PD-1; antibody at 0.05 µg/mL; blocked ligand biotin-labeled dPD-L1 (5 µg/ml), detected with Streptavidin-PE
Experimental: as §1, §2

[3] = target: T1, canine PD-1 (on transfected CHO cells); assay: flow cytometry blocking assay on CHO cells transiently transfected with canine PD-1; antibody at 0.005 µg/mL; blocked ligand biotin-labeled dPD-L1 (5 µg/ml), detected with Streptavidin-PE
Experimental: as §1, §2

[4] = target: T1, canine PD-1 (on transfected CHO cells); assay: flow cytometry blocking assay on CHO cells transiently transfected with canine PD-1; antibody at 0.5 µg/mL; blocked ligand biotin-labeled dPD-L1 (5 µg/ml), detected with Streptavidin-PE
Experimental: as §1, §2

[5] = target: T2, feline PD-1 (on transfected CHO cells) (feline); assay: flow cytometry (MFI) on CHO cells with feline PD-1 and EGFP
T2 construct: Expressed from a vector that also expresses EGFP; also called cPD-1
T2 chain: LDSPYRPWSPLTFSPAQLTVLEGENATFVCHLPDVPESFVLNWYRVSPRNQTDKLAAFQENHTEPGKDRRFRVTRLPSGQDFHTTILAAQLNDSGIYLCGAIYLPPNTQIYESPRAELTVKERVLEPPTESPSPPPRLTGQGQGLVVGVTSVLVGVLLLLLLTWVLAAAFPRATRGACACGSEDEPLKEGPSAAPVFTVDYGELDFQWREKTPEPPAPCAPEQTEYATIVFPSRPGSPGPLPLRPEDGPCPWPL
Experimental: In FIG. 9, the CHO cells were transfected with an expression vector that expresses feline PD-1 and EGFP. 25 μl purified anti-dPD-1 chimeric antibodies with different concentrations were added to each well. After being washed with PBS (1200 rmp, 5 min) twice, 50 μl of Alexa Fluor 647 labeled anti-dog IgG Fc antibody (anti-dIgG Fc-647) was added into each well at 1:500 dilution, followed by incubating at 4° C. for 30 minutes, and then PBS wash (1200 rmp, 5 min). 30 μl of PBS was then added. […] EC50 were also determined from the data.

[6] = target: T1, canine PD-1 (on transfected CHO cells); assay: flow cytometry (MFI) on CHO cells with canine PD-1
Experimental: 25 μl CHO cells were added to each well.
30 μl of PBS was then added.

[7] = target: T3, human PD-1 (on transfected CHO cells) (human, UniProt Q15116 25-288); assay: flow cytometry on CHO-hPD-1 cells; Anti-dog-IgG Fc-FITC (1:100)
T3 construct: also called hPD-1
Experimental: After being washed with PBS (1200 rmp, 5 min) twice, FITC labeled anti-dog IgG Fc antibody (anti-dIgG Fc-FITC) was added into each well 1:100 dilution, followed by incubating at 4° C. for 30 minutes, and then PBS wash (1200 rmp, 5 min). The signals for FITC were determined by flow cytometry.

T3 sequence (Q15116 25-288 limits assumed): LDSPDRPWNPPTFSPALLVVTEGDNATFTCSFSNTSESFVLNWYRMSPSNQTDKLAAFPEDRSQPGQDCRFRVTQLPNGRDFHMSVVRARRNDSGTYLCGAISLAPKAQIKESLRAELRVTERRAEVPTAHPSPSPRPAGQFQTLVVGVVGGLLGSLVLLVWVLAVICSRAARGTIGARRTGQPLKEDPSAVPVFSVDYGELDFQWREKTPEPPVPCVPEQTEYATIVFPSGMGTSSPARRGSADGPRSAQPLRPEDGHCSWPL

percent of cells in the dPD-L1-positive (PE) gate [1]: 0.504%
percent of cells in the dPD-L1-positive (PE) gate [2]: 47%
percent of cells in the dPD-L1-positive (PE) gate [3]: 45.1%
percent of cells in the dPD-L1-positive (PE) gate [4]: 4.4%
B1: 1B9-mHvKv-dIgG4 (antibody, V domains shown)
VH: QVQLQQPGAELVRPGASVKLSCKASGYTFTSFWMNWVKLRPEQGLEWIGRVDPYDSETHYNQKFKDKAILTVDKSSSTAYMQLSSLTSEDSAVYYCATQFGFSWLAYWGQGTLVTVSA
VL: not shown
notes: also called 1B9-mHvKv-IgG4; 1B9-mHvKv-dlgG4

percent of cells in the dPD-L1-positive (PE) gate [1]: 3.37%
percent of cells in the dPD-L1-positive (PE) gate [2]: 27.1%
percent of cells in the dPD-L1-positive (PE) gate [3]: 34.1%
EC50 [5]: 1.53 nM
EC50 [6]: 4.81 nM
percent of cells in the dPD-L1-positive (PE) gate [4]: 1.7%
B2: 4A7-mHvKv-dIgG4 (antibody, V domains shown)
VH: EVQLVESGGDLVKPGGSLKLSCVASGFPFSNFGMSWVRQTPDKRLEWVATISSGSSYSYYSDSVKGRFTISRDNAKNTLFLQMNSLKSEDTAIFYCARGESRFAYWGQGTLVTVSA
VL: DVVITQDELSNPVTSGESVSISCRSNKSLLYEDGQTYLNWFLQRPGQSPQLLIYLMSTRASGVSDRFSGSGSGTDFTLEISEVRAEDVGVYYCQQLIEYPLTFGAGTKLELKR
notes: also called 4A7-mHvKv-IgG4; 4A7-mHvKv-dlgG4

percent of cells in the dPD-L1-positive (PE) gate [1]: 4.38%
percent of cells in the dPD-L1-positive (PE) gate [2]: 18.8%
percent of cells in the dPD-L1-positive (PE) gate [3]: 39.2%
EC50 [5]: 7.29 nM
binding result [7]: no binding (tested: 10 µg/ml)
percent of cells in the dPD-L1-positive (PE) gate [4]: 0.161%
B3: 1D8-mHvKv-dIgG4 (antibody, V domains shown)
VH: B2 VH with V23A, P28T, S30N, T40N, I51L, S58T, F80Y, I93M, F94Y, A97T
VL: B2 VL with D1G, N26S, E32K, Q35K, E82R, R84K
notes: also called 1D8-mHvKv-IgG4; 1D8-mHvKv-dlgG4

— patent US20220324978A1 (BIOCYTOGEN PHARMACEUTICALS BEIJING, published 2022)
